In US20250346878, “EDITING OF DOUBLE-STRANDED DNA WITH RELAXED PAM REQUIREMENT” (WUHAN UNIVERSITY, published 2025):

Key:
dAtCas9 [1] = molecular target: T1, dAtCas9 (Alicyclobacillus tengchongensis, D8A,H617A,N640A); assay: EMSA; SD 10.9; buffer16 with 10 mM Mg2+, 55C; PAM CTAA; details: tags: 6xHis; label: 5' Cy5
T1 chain: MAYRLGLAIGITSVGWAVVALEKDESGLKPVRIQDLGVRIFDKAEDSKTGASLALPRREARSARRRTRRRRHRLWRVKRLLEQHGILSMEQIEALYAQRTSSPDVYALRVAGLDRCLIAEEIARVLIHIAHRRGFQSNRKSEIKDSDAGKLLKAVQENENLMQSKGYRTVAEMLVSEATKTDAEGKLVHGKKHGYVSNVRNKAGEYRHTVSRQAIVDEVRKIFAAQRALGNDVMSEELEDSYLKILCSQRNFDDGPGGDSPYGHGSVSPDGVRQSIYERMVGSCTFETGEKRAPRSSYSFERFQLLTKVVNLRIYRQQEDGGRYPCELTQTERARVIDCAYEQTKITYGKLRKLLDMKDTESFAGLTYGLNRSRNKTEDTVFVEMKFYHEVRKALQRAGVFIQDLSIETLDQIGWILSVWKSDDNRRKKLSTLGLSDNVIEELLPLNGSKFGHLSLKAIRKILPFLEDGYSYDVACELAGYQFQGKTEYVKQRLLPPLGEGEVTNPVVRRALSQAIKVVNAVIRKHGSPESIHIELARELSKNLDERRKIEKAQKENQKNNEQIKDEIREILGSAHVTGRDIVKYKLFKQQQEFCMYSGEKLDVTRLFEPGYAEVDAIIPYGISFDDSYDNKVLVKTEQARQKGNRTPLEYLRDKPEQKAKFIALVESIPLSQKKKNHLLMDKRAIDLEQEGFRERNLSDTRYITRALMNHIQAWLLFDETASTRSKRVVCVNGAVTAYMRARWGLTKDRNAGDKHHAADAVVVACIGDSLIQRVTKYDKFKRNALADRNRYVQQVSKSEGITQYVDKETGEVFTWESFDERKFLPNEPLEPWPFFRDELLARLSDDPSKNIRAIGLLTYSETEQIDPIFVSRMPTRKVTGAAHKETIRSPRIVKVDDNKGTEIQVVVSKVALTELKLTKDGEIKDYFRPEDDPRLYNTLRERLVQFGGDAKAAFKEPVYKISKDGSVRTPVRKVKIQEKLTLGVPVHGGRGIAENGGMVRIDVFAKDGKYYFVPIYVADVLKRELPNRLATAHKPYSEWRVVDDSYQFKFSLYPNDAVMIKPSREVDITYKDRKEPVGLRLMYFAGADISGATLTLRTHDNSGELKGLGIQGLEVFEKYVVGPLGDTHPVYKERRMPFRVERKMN
Method: (§1) A. Schematic diagram of AtCas9 domain structure showing RuvC and HNH nuclease domain mutation site. BH, arginine-rich bridge helix; REC, recognition lobe; L1, linker 1; L2, linker 2; WED, Wedge domain; TOPO, Topoisomerase-homology domain; CTD, C-terminal domain; HNH, HNH domain; D, Aspartic acid; H, Histidine; N, Asparagine; A, Alanine. B. (left) Electrophoretic mobility shift assay (EMSA) were carried out by incubating AtCas9 RNP with 25 nM Cy5-labeled oligonucleotides (50 bp) in buffer16 without Mg²⁺. […] (right) Catalytically dead AtCas9 (dAtCas9, D8A H617A N640A) were used for EMSA assay in the presence of Mg²⁺ C. […] The bulge substrate details are illustrated in FIG. 10B. […] MUT PAM TATA and WT PAM CTAA was used. D. Higher binding affinity of AtCas9 RNPs towards negative supercoiled dsDNA than linear dsDNA. 1 nM cy5-labeled negative supercoil plasmid or NcoI-linearized plasmid containing PAM (CTAA) or mutant PAM (TGAC) motif were incubated with dAtCas9 RNP complex at indicated dosage. ProK, Proteinase K.
(§2) dAtCas9 and sgRNA were mixed at 1:2 molar ratio in 1×buffer16. After incubation at room temperature for 10 minutes, the RNP mixture were diluted to various concentration ranging from […] to 0.6 nM and 4 nM cy5-labeled oligonucleotides was added. Binding reactions were carried out at 55° C. for 30 minutes. Samples were resolved on 4% native TBE-PAGE for oligonucleotides. […]

dAtCas9-D1089A [2] = molecular target: T2, dAtCas9-D1089A (Alicyclobacillus tengchongensis, D8A,H617A,N640A,D1089A); assay: EMSA; SD 15.39; PAM CTAA; details: tags: 6xHis; label: 5' Cy5
T2 chain: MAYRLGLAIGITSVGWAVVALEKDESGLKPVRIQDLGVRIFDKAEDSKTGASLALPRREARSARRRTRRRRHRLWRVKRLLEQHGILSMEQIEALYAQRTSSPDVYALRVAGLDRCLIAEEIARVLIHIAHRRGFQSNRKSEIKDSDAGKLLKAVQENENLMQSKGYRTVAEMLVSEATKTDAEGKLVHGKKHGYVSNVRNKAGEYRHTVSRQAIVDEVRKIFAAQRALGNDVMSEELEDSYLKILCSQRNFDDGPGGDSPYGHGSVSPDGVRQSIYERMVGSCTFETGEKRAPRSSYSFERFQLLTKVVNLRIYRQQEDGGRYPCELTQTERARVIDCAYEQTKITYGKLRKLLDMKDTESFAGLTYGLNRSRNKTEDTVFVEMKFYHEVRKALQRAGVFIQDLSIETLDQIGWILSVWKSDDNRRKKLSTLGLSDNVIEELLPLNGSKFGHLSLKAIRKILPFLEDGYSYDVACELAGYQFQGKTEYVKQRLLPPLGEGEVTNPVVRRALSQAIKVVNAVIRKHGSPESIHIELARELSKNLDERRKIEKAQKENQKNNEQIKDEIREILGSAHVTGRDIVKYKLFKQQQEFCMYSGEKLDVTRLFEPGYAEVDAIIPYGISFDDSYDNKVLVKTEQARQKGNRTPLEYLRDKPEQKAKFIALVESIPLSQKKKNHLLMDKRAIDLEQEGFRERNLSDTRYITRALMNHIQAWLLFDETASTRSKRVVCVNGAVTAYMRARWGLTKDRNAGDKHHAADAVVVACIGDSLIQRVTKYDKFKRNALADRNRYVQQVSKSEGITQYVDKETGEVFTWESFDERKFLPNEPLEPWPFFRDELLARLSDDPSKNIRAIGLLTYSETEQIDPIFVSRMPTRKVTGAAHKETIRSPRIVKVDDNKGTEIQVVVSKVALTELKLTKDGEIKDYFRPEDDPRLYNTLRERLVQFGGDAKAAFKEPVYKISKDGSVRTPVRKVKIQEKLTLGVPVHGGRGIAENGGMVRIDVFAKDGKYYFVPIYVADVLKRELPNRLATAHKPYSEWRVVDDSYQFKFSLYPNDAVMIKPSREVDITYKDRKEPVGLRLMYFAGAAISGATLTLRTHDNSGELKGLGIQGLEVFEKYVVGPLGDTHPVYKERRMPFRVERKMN
From the text: (§3) A. Schematic representation of AtCas9 domain structure showing the positions of PAM-interacting (PI) mutations. BH, arginine-rich bridge helix; REC, recognition lobe; L1, L1 linker; L2, L2 linker; WED, Wedge domain; TOPO, Topoisomerase-homology domain; CTD, C-terminal domain; HNH, HNH domain; RuvC, RuvC domain; D, Aspartic acid; I, Isoleucine; S, Serine; G, Glycine; A, Alanine. B. Negative supercoil and linearized DNA of different PAM were cleaved by WT AtCas9 and two PI mutants, m4 and m5. Each PAM variant has at least two distinct spacer sequences for cleavage assays. Use Image Lab software to analyzed the percentage of cutting products and take the average value of each PAM variant for graphing. m4, D1089A; m5, D1089A S1091A G1092A. C. Sequence logo for the AtCas9 PI domain mutant m4 (D1089A) PAM as determined by linearized PAM library substrates cleavage assay. D. EMSA assay were performed with 5′ cy5-labeled oligonucleotides carrying WT PAM (CTAA, left) or MUT PAM (TATA, right), and dAtCas9 or dAtCas9-D1089A RNP complex titrating from 1.2 nM to 2.4 μM. […] E. SpCas9 RNPs hardly bind to mut PAM (GTC) dsDNA compared with wt PAM (AGG) dsDNA. KD±SD for SpCas9 to WT PAM dsDNA, 300±10.57 nM; KD±SD for SpCas9 to MUT PAM dsDNA, ˜2.495e+18 nM.
(§4) dAtCas9 and sgRNA were mixed at 1:2 molar ratio in 1×buffer16. […]

dAtCas9 [3] = molecular target: T1, dAtCas9; assay: EMSA; SD 12.05; second measurement, PAM CTAA; guide 21a sgRNA-At; details: tags: 6xHis; label: 5' Cy5
From the text: as §3, §4

dAtCas9 [4] = molecular target: T1, dAtCas9; assay: EMSA; SD 7.1; second measurement, mutated PAM TATA; details: tags: 6xHis; label: 5' Cy5
From the text: as §3, §4

dAtCas9 [5] = molecular target: T1, dAtCas9; assay: EMSA; SD 4.5; mutated PAM TATA; buffer16, 55C; details: tags: 6xHis; label: 5' Cy5
Method: as §1, §2

dAtCas9-D1089A [6] = molecular target: T2, dAtCas9-D1089A; assay: EMSA; SD 13.6; PAM TATA; details: tags: 6xHis; label: 5' Cy5
From the text: as §3, §4

dAtCas9 [7] = molecular target: T1, dAtCas9; assay: EMSA; SD 12.2; mutated PAM TATA with 1-2 bulge; details: tags: 6xHis; label: 5' Cy5; 2-base bulge at PAM-proximal positions 1-2
Method: as §1, §2

dAtCas9 [8] = molecular target: T1, dAtCas9; assay: EMSA; PAM CTAA; details: tags: 6xHis; label: Cy5; NcoI-linearized plasmid
Method: as §1, §2

B1: 21a sgRNA-At full length ; 50 bp 21a WT PAM (CTAA) (ssRNA ; dsDNA)
RNA: AAAUGCCUUCGAUUUUACCCCAACGAAUAAGUCAUAGUUCCCUCACAAGCCUCGAUGUGGUAUGAUGAAAAUCAUACCACAUCAAGGCUUGCGAGGUUGCUAUGAUAAGGCAACAGGCCGCAAAGCACUGACCCGCAUUCCAAUGAAUGCGGGUCAUCUACUUUUU
DNA 1: AAATGCCTTCGATTTTACCCCAACGAATAACAGGCTAAAATATGGACCTG
DNA 2: CAGGTCCATATTTTAGCCTGTTATTCGTTGGGGTAAAATCGAAGGCATTT
- Kd (dAtCas9 [1]): 22.4 nM
- Kd (dAtCas9-D1089A [2]): 44.4 nM
- Kd (dAtCas9 [3]): 26.2 nM

B2: 21a sgRNA-At full length ; 50 bp 21a mutated PAM (TATA), 0 bulge (ssRNA ; dsDNA)
RNA: AAAUGCCUUCGAUUUUACCCCAACGAAUAAGUCAUAGUUCCCUCACAAGCCUCGAUGUGGUAUGAUGAAAAUCAUACCACAUCAAGGCUUGCGAGGUUGCUAUGAUAAGGCAACAGGCCGCAAAGCACUGACCCGCAUUCCAAUGAAUGCGGGUCAUCUACUUUUU
DNA 1: AAATGCCTTCGATTTTACCCCAACGAATAAGTCATATAAATATGGACCTG
DNA 2: CAGGTCCATATTTATATGACTTATTCGTTGGGGTAAAATCGAAGGCATTT
- Kd (dAtCas9 [4]): 109 nM
- Kd (dAtCas9 [5]): 248 nM
- Kd (dAtCas9-D1089A [6]): 27.1 nM

B3: 21a sgRNA-At full length ; 50 bp 21a mutated PAM, 1-2 bulge (ssRNA ; dsDNA)
RNA: AAAUGCCUUCGAUUUUACCCCAACGAAUAAGUCAUAGUUCCCUCACAAGCCUCGAUGUGGUAUGAUGAAAAUCAUACCACAUCAAGGCUUGCGAGGUUGCUAUGAUAAGGCAACAGGCCGCAAAGCACUGACCCGCAUUCCAAUGAAUGCGGGUCAUCUACUUUUU
DNA 1: AAATGCCTTCGATTTTACCCCAACGAATTTGTCATATAAATATGGACCTG
DNA 2: CAGGTCCATATTTATATGACTTATTCGTTGGGGTAAAATCGAAGGCATTT
- Kd (dAtCas9 [7]): 29.5 nM

B4: 27m sgRNA-At ; 27m WT PAM (CTAA) mini plasmid, linear (ssRNA ; dsDNA)
RNA: GAAGAUCCUUUGAUCUUUUCUACGGGUCAUAGUUCCCUCACAAGCCUCGAUGUGGUAUGAUGAAAAUCAUACCACAUCAAGGCUUGCGAGGUUGCUAUGAUAAGGCAACAGGCCGCAAAGCACUGACCCGCAUUCCAAUGAAUGCGGGUCAUCUACUUUUU
DNA 1: GAAGATCCTTTGATCTTTTCTACGGGGTCCTAA
DNA 2: TTAGGACCCCGTAGAAAAGATCAAAGGATCTTC
- binding result (dAtCas9 [8]): binds
